Laboratory results as given in patent publication US20240182592A1 (CHIA TAI TIANQING PHARMACEUTICAL GROUP, published 2024).

T1: human BCMA on cells (human, UniProt Q02223 1-184)
T1 construct: whole, on cells; also called CHO-hBCMA cells; U266 cells
T1 sequence (looked up): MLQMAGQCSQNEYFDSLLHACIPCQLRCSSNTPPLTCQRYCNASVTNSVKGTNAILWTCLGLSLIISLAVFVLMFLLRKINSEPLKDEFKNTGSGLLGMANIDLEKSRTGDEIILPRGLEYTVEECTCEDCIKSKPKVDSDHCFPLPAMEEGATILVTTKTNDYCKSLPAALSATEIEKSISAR

T2: human BCMA protein (human, UniProt Q02223 1-54, limits assumed)
T2 construct: also called hBCMA; Antigen BCMA
T2 sequence (looked up): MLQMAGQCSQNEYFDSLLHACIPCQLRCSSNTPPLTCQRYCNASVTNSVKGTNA


How the values were obtained:
[1] = molecular target: T1, human BCMA on cells; test: flow cytometry, MM1S cells
Description: (§1) NCI-H929 cells (BCMA+++), MM1S cells (BCMA++), and RPMI-8226 cells (BCMA+) in the logarithmic growth phase were taken, adjusted to a cell density of 5×10⁶-10×10⁶ cells/mL using RPMI medium (Hyclon, catalog No. SH30809.01) containing 2% FBS (fetal bovine serum), respectively, and seeded in a 96-well U-bottom cell culture plate (Costar, catalog No. 3799) at 50 μL per well. The test antibodies at different concentrations were prepared using the medium described above. […] The antibodies at different concentrations were added to the 96-well cell culture plate described above at 50 μL per well, mixed well and incubated at 4° C. for 1 h. The cells were washed with pre-cooled running buffer (MACS, catalog No. 130-091-221), and the supernatant was discarded. Pre-cooled fluorescent labeled goat anti-human IgG antibodies (Jackson, catalog No. 109-116-170) were added, and the cells were resuspended at 100 μL per well, mixed well and incubated at 4° C. for 30 min. After washing, 100 μL of pre-cooled running buffer was added to resuspend the cells. The cells were mixed well and collected while flowing on an Attune™ NxT flow cytometer, and the data was analyzed using Graphpad Prism5 software. FIGS. 7-9 and Table 11 show the binding ability of the anti-BCMA/anti-CD3 multispecific antibodies to NCI-H929 cells (BCMA+++), MM1S cells (BCMA++), and RPMI-8226 cells (BCMA+).

[2] = molecular target: T1, human BCMA on cells; test: cell-based or functional assay
[3] = molecular target: T3, T cell surface CD3 (human, UniProt P07766 23-207); test: flow cytometry, human CD3+ T cells
T3 construct: whole, on cells; also called CD3^+ T cells
Description: Human PBMC cells were sorted for CD3⁺ T cells using CD3 magnetic beads (Miltenyi, catalog No. 130-097-043): the cryopreserved PBMCs were thawed, and washed by centrifugation twice for counting. Running buffer (MACS, catalog No. 130-091-221) was added in a cell-to-buffer ratio of 10⁷:80 μL, CD3 beads were added in a cell-to-bead ratio of 10⁷:20 μL, and the mixture was mixed well and incubated at 4° C. for 15 min. The cells were washed with buffer in a cell-to-buffer ratio of 10⁷:1-2 mL. After centrifugation, the supernatant was discarded, and 500 μL of buffer was added to resuspend the cell pellet. The LS sorting column (Miltenyi, catalog No. 130-042-401) was placed on the MidiMACS Starting Kit (LS) magnetic rack (Miltenyi, catalog No. 130-091-051). After rinsing, the cell suspension was added and washed thrice. The LS sorting column was removed from the magnetic rack and placed on a clean centrifuge tube and 5 mL buffer was added to collect the sorted CD3⁺ T cells. After counting, the CD3⁺ T cells were adjusted to a cell density of 5×10⁶-10×10⁶ cells/mL using RPMI medium (Hyclone, catalog No. SH30809.01) containing 2% FBS (fetal bovine serum) and seeded in a 96-well U-bottom cell culture plate (Costar, catalog No. 3799) at 50 μL per well. The test antibodies at different concentrations were prepared using the medium described above. […] The antibodies at different concentrations were added to the 96-well cell culture plate described above at 50 μL per well, mixed well and incubated at 4° C. for 1 h. The cells were washed with pre-cooled running buffer (MACS, catalog No. 130-091-221), and the supernatant was discarded. Pre-cooled fluorescent labeled goat anti-human IgG antibodies (Jackson, catalog No. 109-116-170) were added, and the cells were resuspended at 100 μL per well, mixed well and incubated at 4° C. for 30 min. After washing, 100 μL of pre-cooled running buffer was added to resuspend the cells.

[4] = molecular target: T2, human BCMA protein; test: SPR (Biacore T200), antibody captured by anti-hIgG, human BCMA as analyte, 1:1 model
Description: (§2) The affinity of the test antibody for human CD3e or human BCMA protein was determined by Biacore T200 (GE) as follows:
(§3) The response signals were detected in real time using Biacore software, and association and dissociation curves were obtained. The buffer used in the experiment was Biacore universal buffer (137 mM NaCl, 2.7 mM KCl, 10 mM Na₂HPO₄.12H₂O, 1.8 mM KH₂PO₄. 0.05% surfactant P-20 (w/v), pH 7.4). […] The flow rate in the flow cell was at 50 μL/min, the association was performed for 240 s, the dissociation was performed for 1400 s, the regeneration was performed using 3 M MgCl (GE) for 60 s, and the baseline was stable. Results were obtained by calculation according to the affinity and kinetics 1:1 binding mode in biacore evaluation software.

[5] = molecular target: T1, human BCMA on cells; test: cell-based or functional assay; remark: listed apart in the source
[6] = molecular target: T1, human BCMA on cells; test: flow cytometry, NCI-H929 cells
Description: as §1

[7] = molecular target: T4, human CD3e (Acro, Cat. No. CDE-H5223) (human, UniProt P07766 23-126); test: SPR (Biacore T200), antibody captured by anti-hIgG, human CD3e as analyte, 1:1 model
T4 construct: also called human CD3e protein; hCD3e
Description: as §2, §3

[8] = molecular target: T1, human BCMA on cells; test: cell-based or functional assay; remark: listed apart in the source

T3 sequence (P07766 23-207): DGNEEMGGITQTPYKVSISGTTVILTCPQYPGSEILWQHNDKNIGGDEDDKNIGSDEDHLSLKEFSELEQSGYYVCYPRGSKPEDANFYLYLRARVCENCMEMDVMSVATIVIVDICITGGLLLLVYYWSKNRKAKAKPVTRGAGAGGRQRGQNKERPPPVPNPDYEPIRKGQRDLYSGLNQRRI
T4 sequence (P07766 23-126 limits assumed): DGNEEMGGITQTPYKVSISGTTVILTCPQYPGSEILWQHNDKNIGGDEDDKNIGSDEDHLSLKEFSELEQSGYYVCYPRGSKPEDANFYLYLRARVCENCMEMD

Binder | EC50 [1] | Top(MFI) [1] | Lysis EC50, NCI-H929 cells with human PBMCs (E:T 10:1, 24 h, LDH release) [2] | Maximum lysis rate, NCI-H929 cells with human PBMCs [2] | EC50 [3] | Top(MFI) [3] | Kd [4] | Lysis EC50, RPMI-8226 cells with human PBMCs (E:T 10:1, 24 h, LDH release) [5] | Maximum lysis rate, RPMI-8226 cells with human PBMCs [5] | EC50 [6] | Top(MFI) [6] | Kd [7] | Lysis EC50, MM1S cells with human PBMCs (E:T 10:1, 24 h, LDH release) [8] | Maximum lysis rate, MM1S cells with human PBMCs [8]
anti-BCMA/anti-CD3 multispecific antibody PC3 (bispecific antibody, human IgG1, lambda, L234A L235A, Trivalent; three chains; human IgG1 knobs-into-holes Fc) QVQLVESGGGLVQPGGSLRLSCAASGFTFNSACMGWFRQAPGKGREGVSRIETGYGGTVYADSVKGRFTISRDNSKNTVYLQMNSLRAEDTAVYYCAAKRSWCTPTWWHELDYNYWGQGTQVTVSSGEPKSSDKTHTCPPCPAPEAAGGPSVFLFPPKPKDTLMISRTPEVTCVVVDVSHEDPEVKFNWYVDGVEVHNAKTKPREEQYNSTYRVVSVLTVLHQDWLNGKEYKCKVSNKALAAPIEKTISKAKGQPREPQVCTLPPSREEMTKNQVSLSCAVKGFYPSDIAVEWESNGQPENNYKTTPPVLDSDGSFFLVSKLTVDKSRWQQGNVFSCSVMHEALHNHYTQKSLSLSPGK heavy: EVQLVESGGGLVQPGGSLRLSCAASGFTFNTYAMNWVRQAPGKGLEWVARIRSKYNNYATYYADSVKDRFTISRDDSKNTAYLQMNNLKTEDTAMYYCVRHGNFGNSYVSWFAYWGQGTLVTVSSASTKGPSVFPLAPSSKSTSGGTAALGCLVKDYFPEPVTVSWNSGALTSGVHTFPAVLQSSGLYSLSSVVTVPSSSLGTQTYICNVNHKPSNTKVDKKVEPKSCDKTHTCPPCPAPEAAGGPSVFLFPPKPKDTLMISRTPEVTCVVVDVSHEDPEVKFNWYVDGVEVHNAKTKPREEQYNSTYRVVSVLTVLHQDWLNGKEYKCKVSNKALAAPIEKTISKAKGQPREPQVYTLPPCREEMTKNQVSLWCLVKGFYPSDIAVEWESNGQPENNYKTTPPVLDSDGSFFLYSKLTVDKSRWQQGNVFSCSVMHEALHNRFTQKSLSLSPGK light: QVQLVESGGGLVQPGGSLRLSCAASGYSSNVACMAWYRQAPGKGLEWVATIVADFGTTNYAASVKGRFTISQDNSKNTVYLQMNSLRAEDTAVYYCAATQRGGIDWCDEINYWGQGTLVTVSSGGGGSELVVTQEPSLTTSPGGTVTLTCRSSTGAVTTSNYANWVQQKPGQAPRGLIGGTNKRAPGTPARFSGSLLGGKAALTITGVQPEDEAEYYCALWYSNLWVFGGGTKLTVLGQPKANPTVTLFPPSSEELQANKATLVCLISDFYPGAVTVAWKADGSPVKAGVETTKPSKQSNNKYAASSYLSLTPEQWKSHRSYSCQVTHEGSTVEKTVAPTECS | 0.338 nM | 124000 MFI | 0.187 nM | 35% | 85.8 nM | 98400 MFI | 0.0347 nM | 0.0142 nM | 39% | 0.837 nM | 223000 MFI | 1.17 nM | 0.0407 nM | 36%
anti-BCMA/anti-CD3 multispecific antibody BC24 (bispecific antibody, human IgG1, lambda, L234A L235A, Trivalent: 1A10 VHH and 1A11 VHH in tandem on one Fc polypeptide, anti-CD3 Fab on the other; human IgG1 knobs-into-holes Fc) QVQLVESGGGSVQAGGSLRLSCAASGYSSNVACMAWYRQAPGKEREWVATIVADFGTTNYAASVKGRFTISQDNAKNTVYLQMNSLKPEDSAMYYCAATQRGGIDWCDEINYWGQGTLVTVSSGGGGSGGGGSQVQLVESGGGSVQAGGSLRLSCAASGVTFNSACMGWFRQAPGKEREGVARIETGYGGTVYADSVKGRFTISRDNAKNTVYLQMNSLKPEDTAMYYCAAKRSWCTPTWWHELDYNYWGQGTQVTVSSGEPKSSDKTHTCPPCPAPEAAGGPSVFLFPPKPKDTLMISRTPEVTCVVVDVSHEDPEVKFNWYVDGVEVHNAKTKPREEQYNSTYRVVSVLTVLHQDWLNGKEYKCKVSNKALAAPIEKTISKAKGQPREPQVCTLPPSREEMTKNQVSLSCAVKGFYPSDIAVEWESNGQPENNYKTTPPVLDSDGSFFLVSKLTVDKSRWQQGNVFSCSVMHEALHNHYTQKSLSLSPGK heavy: EVQLVESGGGLVQPGGSLRLSCAASGFTFNTYAMNWVRQAPGKGLEWVARIRSKYNNYATYYADSVKDRFTISRDDSKNTAYLQMNNLKTEDTAMYYCVRHGNFGNSYVSWFAYWGQGTLVTVSSASTKGPSVFPLAPSSKSTSGGTAALGCLVKDYFPEPVTVSWNSGALTSGVHTFPAVLQSSGLYSLSSVVTVPSSSLGTQTYICNVNHKPSNTKVDKKVEPKSCDKTHTCPPCPAPEAAGGPSVFLFPPKPKDTLMISRTPEVTCVVVDVSHEDPEVKFNWYVDGVEVHNAKTKPREEQYNSTYRVVSVLTVLHQDWLNGKEYKCKVSNKALAAPIEKTISKAKGQPREPQVYTLPPCREEMTKNQVSLWCLVKGFYPSDIAVEWESNGQPENNYKTTPPVLDSDGSFFLYSKLTVDKSRWQQGNVFSCSVMHEALHNRFTQKSLSLSPGK light: ELVVTQEPSLTTSPGGTVTLTCRSSTGAVTTSNYANWVQQKPGQAPRGLIGGTNKRAPGTPARFSGSLLGGKAALTITGVQPEDEAEYYCALWYSNLWVFGGGTKLTVLGQPKANPTVTLFPPSSEELQANKATLVCLISDFYPGAVTVAWKADGSPVKAGVETTKPSKQSNNKYAASSYLSLTPEQWKSHRSYSCQVTHEGSTVEKTVAPTECS | 0.535 nM | 107000 MFI | 0.0218 nM | 40% | 38.3 nM | 163000 MFI | 0.0627 nM | 0.0113 nM | 29% | 1.56 nM | 186000 MFI | 0.286 nM | 0.00937 nM | 21%
